In patent US5753621A, “Pulmonary surfactant protein fragments” (Abbott Laboratories, priority 1995, dated 1998):

How the values were obtained:
Assay type in all cases: physicochemical
[1] = Relative surface activity by dilution studies on the modified Wilhelmy Balance-Langmuir Trough; details: 675 ug phospholipid
Protocol: For the purpose of this comparison "surface activity" is defined as follows: For any given peptide concentration, the admixture is required to result in a minimum dynamic surface tension of less than 10 dynes/cm for each of seven consecutive expansion/compression cycles.
Initially each of the admixtures was formulated so as to contain an equal number of moles of the individual peptide as is contained in a 0.5 mg/mL admixture of SP-B(53-78). […] Thereafter, each of these admixtures was diluted with the standard lipid mixture as described in Example 4, so as to provide doubling dilutions of the equimolar "parent" stock peptide admixture. The lipid concentration in all cases was maintained at 25 mg/ml.
Assessment of relative surface activity was conducted on the modified Wilhemy-Langmuir Surface Balance. For these studies a standard volume of 27 ul of each admixture, corresponding to a total phospholipid mass of 675 ug, was applied to the Langmuir Trough with maximum dimensions of 445 sq. cm.

[2] = Pulsating Bubble Surfactometer (PBS) surface tension; details: after 5 minutes pulsation (100 cycles); 1 mg/ml phospholipid, peptide 2% of phospholipids; 0.15M NaCl; 37° C.; 20 cycles/minute; SD in parenthesis
Protocol: (§1) Prior to testing for surface activity, the synthetic fragments were admixed with lipids. A lipid mixture consisting of 68% 1,2-dipalmitoyl-sn-phosphatidylcholine (DPPC), 22% egg phosphatidylglycerol (PG) and 9% palmitic acid on a weight basis was prepared by dissolving the lipids in chloroform:methanol (2:1). The required amount of peptide fragment was dissolved in methanol and heated to 60° C. for 10 minutes. The peptide solution was then added to the lipid mixture prewarmed to 45° C. for ten minutes. The samples were mixed at 45° C. by gentle swirling at 100 revolutions per minute on a Buchi rotary evaporator. The organic solvents were then evaporated at 45° C. by increasing the vacuum in 100 torr increments every five minutes until most of the solvent was removed. Final vacuum was between 150-200 torr. Following evaporation, the solids were then suspended in 10% ethanol prewarmed to 45° C. and which was prepared using deionized distilled water. The suspension was gently mixed with vortexing and placed back under vacuum at 600 torr with a repeat of the vacuum ramping process. Final vacuum for the ethanol removal was 50 torr. Following complete removal of ethanol the suspension was diluted with aqueous 0.15M NaCl at 45° C. to yield an admixture with a phospholipid concentration of 25 mg/ml. The peptide/lipid admixtures were formed at final peptide concentrations of 0.5 mg/ml (equivalent to 2% of solids concentration).
The PBS equipment (Electronetics, Buffalo, N.Y.) used was essentially equivalent to that described in detail by G. Enhorning, J. Appld. Physiol. 43, 198-203, (1977). Recordings were made of the pressure gradient across the wall of a small air bubble, communicating with ambient air by means of a narrow chimney stack, but otherwise entirely surrounded by a 40 ul volume of the peptide/lipid admixture. The admixture concentration employed for these studies was 1 mg/ml total phospholipid (0.02 mg/ml total peptide) and the diluent was 0.15M NaCl.
Immediately prior to loading the sample chamber, the diluted samples were sonicated for 15 seconds to remove any gas nuclei.
The pressure drop across the air-water interface was measured during pulsation by a pressure transducer, and the corresponding surface tension was determined at minimum and maximum bubble size through the application of Young's law and the Laplace equation. Measurements were all made at 37° C. and the bubble pulsed at 20 cycles/minute to render respectively a maximum (1.1 mm) and a minimum (0.8 mm) bubble diameter. (This compression/expansion corresponds to a 50% change in the surface area of the air-water interface).

[3] = Adsorption capacity, modified Wilhelmy surface balance; details: measured after three (3) minutes spreading time; peptide 0.5 mg/ml (~2% of solids)
Protocol: as §1
A procedure similar to that described by Notter, et al., Pediatric Res. 16, 515-519 (1982) was employed to determine the absorption rate in the absence of diffusion resistance. The modified Wilhelmy surface balance as described above was used. However, instead of using a Langmuir trough, a round Teflon dish (5.1 cm diameter) was employed. The subphase, 70 ml of 0.15M NaCl, was allowed to equilibrate to 37° C. in the incubator and was continuously stirred with a Teflon coated magnetic stirrer. An aliquot of the peptide/lipid fragment admixture containing 5 mg of total phospholipid was dispersed in 10 ml of 0.15M NaCl by vortexing for 10 seconds. This dispersion was then added to the saline subphase. Surface tension lowering was monitored using a strip chart recorder connected to the electro-balance output.

[4] = Dynamic surface tension versus compressed surface area, modified Wilhelmy Surface Balance (Langmuir Trough); details: peptide 0.5 mg/ml (~2% of solids) in DPPC:PG:PA 68:22:9; 675 ug phospholipid on 445 sq. cm trough; recorded during seven complete cycles
Protocol: as §1
The dynamic surface tension lowering properties of the peptide/lipid admixtures were studied using a modified Wilhelmy Surface Balance (Langmuir Trough). The instrument consists of an all Teflon trough and movable Teflon ribbon (dam) barrier system which completely contains and defines a variable surface area. Surface area was varied through the use of a constant rate reversible 3-phase motor to drive the Teflon barrier. A Cahn 2000 electrobalance (Cahn Instruments, Cerittos, Calif.) with a sandblasted 1 cm platinum plate and stainless steel hangdown wire was employed to determine the surface tension at the liquid-air interface. The entire apparatus was situated in a thermostated incubator set at 45° C. Surface area-surface tension measurements were made by adding 950 ml of 0.15M NaCl to the trough. Subphase temperature was controlled during the measurements at 36°-38° C.
For each experiment 27 ul of peptide/lipid admixture was applied in a random array of 13 droplets to the surface of the temperature controlled subphase and allowed to spread spontaneously for 3 minutes. (The 27 ul application corresponds to 675 ug of phospholipid). The trough surface area was then cycled from a maximum (445 sq. cm) to a minimum (178 sq. cm) surface area and back to maximum at a cycling rate of 3 cycles/min (compression ratio 2.5:1). The dynamic surface tension versus surface area was recorded for 7 complete compression-expansion cycles for each application.

B1: SP-B(1-78): complete SP-B surfactant protein having 78 amino acid residues, used as control (protein, UniProt P07988 201-279, looked up)
Pulmonary …: FPIPLPYCWLCRALIKRIQAMIPKGALAVAVAQVCRVVPLVAGGICQCLAERYSVILLDTLLGRMLPQLVCRLVLRCSM
modifications: Pulmonary surfactant-associated protein B
notes: complete SP-B surfactant protein having 78 amino acid residues, used as control
In the case of B1, the “Mean Minimum Surface Tension, relative peptide concentration 1/2” value ([1]; 1/2 dilution of equimolar stock with lipid mixture) is reported as 1.5 mN/m, the “Mean Minimum Surface Tension, relative peptide concentration 1/4” value ([1]; 1/4 dilution of equimolar stock with lipid mixture) is reported as 4.5 mN/m and the “Mean Minimum Surface Tension, relative peptide concentration 1/8” value ([1]; 1/8 dilution of equimolar stock with lipid mixture) is reported as 21.5 mN/m. For the same molecule, the “Mean Minimum Surface Tension, relative peptide concentration Equimolar” value ([1]; equimolar to 0.5 mg/mL SP-B(53-78), 445 sq. cm trough) was 1.5 mN/m, the “Mean Minimum Surface Tension, relative peptide concentration 2%” value ([1]; peptide 2% of solids (0.5 mg/ml), 445 sq. cm trough) was 1.6 mN/m and the “Surface tension Maximum (maximum bubble size)” value [2] was 50.6 (1.7) dyne/cm. For the same molecule, the “Surface tension Minimum (minimum bubble size)” value [2] was 4.7 (0.3) dyne/cm, the “Adsorption (equilibrium adsorption surface tension)” value [3] was 37.5 dynes/cm and the “Surface Tension Maximum” value [4] was 44.0 dynes/cm. The “Surface Tension Minimum” value [4] was 0.3 dynes/cm.
